For one protein, Kd results are on record in PMC9675739, “Structural and functional asymmetry of RING trimerization controls priming and extension events in TRIM5α autoubiquitylation” (Nature Communications, 2022).

The data set deals with the molecule itself. The data set can be described thus: AUC; sedimentation equilibrium at different protein concentrations and rotor speeds, 20 °C, global fit to a monomer-dimer self-association model; dimer to monomers.

B1: R1-WT, isolated RING domain of rhesus TRIM5α (domain or fragment, rhesus monkey, UniProt Q0PF16 2-90, looked up)
chain: ASGILLNVKEEVTCPICLELLTEPLSLHCGHSFCQACITANHKKSMLYKEGERSCPVCRISYQPENIQPNRHVANIVEKLREVKLSPEE
notes: TRIM5α RING domain, rhesus monkey, residues 2-90 (methods); the results give residues 2-89; Tags removed by TEV protease; 15N-labelled for NMR; also called RING monomer; isolated RING monomer; source: bacteria, purified (Ni-NTA, Superdex 75); not shown: His6, N-terminal, cleaved; GB1, N-terminal, cleaved
A word on the Kd: it is the free concentration of one partner at which half of the binding sites on the other are occupied at equilibrium, for simple one-to-one binding. A lower Kd goes with tighter binding. The protein B1 returned a dissociation constant (Kd) of 63 ± 28 µM.
